The text below walks through data of article PMC6445578.

Experiment [1] addresses hERG F860A core channel (hERG ΔPAS F860A-citrine, S620T) (human) (UniProt Q12809). Description: FRET or BRET. Background: In BRET a luciferase serves as donor, and the signal depends on an acceptor being close.
Experiment [2] has as its target hERG ΔPAS-citrine channel (hERG core channel), S620T (human) (UniProt Q12809). In words: FRET or BRET.

On to “hERG PAS domain fused to cyan fluorescent protein (hERG PAS-CFP) (from UniProt Q12809 1-135) (domain or fragment)”, for which the Ratio A – Ratio A0 (proportional to FRET efficiency) in experiment [1] was 0.09. The Ratio A − Ratio A0 (proportional to FRET efficiency) in experiment [2] worked out at 0.2.
